Assay results reported in patent US20070098718A1 (Novartis, published 2007).
Blank lines part the entries; values can stand above or below the binder they belong to.

Target: T1, Recombinant soluble CD40-his (human, UniProt P25942 21-193, limits assumed)
T1 construct: not shown: his tag
Experiment: binding affinity to human CD40 (Biacore per paragraph 64)

T1 sequence (P25942 21-193 limits assumed): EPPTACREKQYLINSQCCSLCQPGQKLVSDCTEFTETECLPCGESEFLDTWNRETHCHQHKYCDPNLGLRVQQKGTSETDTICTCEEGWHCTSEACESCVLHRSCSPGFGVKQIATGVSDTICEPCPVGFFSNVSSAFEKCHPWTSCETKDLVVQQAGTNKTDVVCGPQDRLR

Kd: 0.5 nM
B1: monoclonal antibody CHIR-12.12 (antibody, human IgG1, kappa, V domains shown)
VH: QVQLVESGGGVVQPGRSLRLSCAASGFTFSSYGMHWVRQAPGKGLEWVAVISYEESNRYHADSVKGRFTISRDNSKITLYLQMNSLRTEDTAVYYCARDGGIAAPGPDYWGQGTLVTVSS
VL: DIVMTQSPLSLTVTPGEPASISCRSSQSLLYSNGYNYLDWYLQKPGQSPQVLISLGSNRASGVPDRFSGSGSGTDFTLKISRVEAEDVGVYYCMQARQTPFTFGPGTKVDIRR
notes: Fully human IgG1 kappa anti-human CD40 mAb; also called antibody of hybridoma 153.8E2.D10.D6.12.12

Kd: 12 nM
B2: monoclonal antibody CHIR-5.9 (antibody, human IgG1, kappa, V domains shown)
VH: EVQLVQSGAEVKKPGESLKISCKGSGYSFTSYWIGWVRQMPGKGLEWMGIIYPGDSDTRYSPSFQGQVTISADKSISTAYLQWSSLKASDTAMYYCARGTAAGRDYYYYYGMDVWGQGTTVTVSS
VL: AIVMTQPPLSSPVTLGQPASISCRSSQSLVHSDGNTYLNWLQQRPGQPPRLLIYKFFRRLSGVPDRFSGSGAGTDFTLKISRVEAEDVGVYYCMQVTQFPHTFGQGTRLEIKR
notes: Fully human IgG1 kappa anti-human CD40 mAb; also called mAb CHIR-5.9; antibody of hybridoma 131.2F8.5.9
